Kd data for 6 sequences are collected here from the Immune Epitope Database (IEDB).

In assay [1] the target is HLA-A*02:01. As to the kind of experiment: IEDB peptide-MHC binding, purified MHC/competitive/fluorescence; filed as Kd, often an IC50 or EC50 that approximates it; ≥ and ≤ were set here for values at or beyond the usual limits of such assays.
A further assay addresses HLA-A*02:03. The assay is described as above.
For another assay, the target named is HLA-A*02:06. Described as above.
A further assay concerns the target HLA-A*02:12. The assay is described as above.
The target of another assay is HLA-A*02:11. The description is as above.
Another assay has as its target HLA-A*02:19. The assay is described as above.
Assay [2] addresses HLA-A*69:01. The description is as above.
For assay [3], the target named is HLA-A*02:01. As to the kind of experiment: IEDB peptide-MHC binding, purified MHC/direct/fluorescence; filed as Kd, often an IC50 or EC50 that approximates it; ≥ and ≤ were set here for values at or beyond the usual limits of such assays.
For the next assay, the target named is HLA-A*31:01. The description is as above.
In a further assay the target is HLA-A*01:01. The description is as above.
For the next assay, the target named is HLA-B*08:01. Described as above.
Assay [4] deals with HLA-A*26:01. The assay is described as above.
For a further assay, the target named is HLA-B*15:01. The description is as above.
Another assay addresses HLA-A*11:01. The assay is described as above.
In another assay the target is HLA-A*03:01. Described as above.
Another assay has as its target HLA-A*24:03. The assay is described as above.
Another assay concerns the target HLA-B*58:01. Described as above.
Assay [5] deals with HLA-A*69:01. Described as above.
The next assay concerns the target HLA-A*30:01. Described as above.
A further assay concerns the target HLA-B*27:05. Described as above.
The next assay has as its target HLA-B*40:01. Described as above.
The target in another assay is HLA-B*07:02. Described as above.
The target in assay [6] is HLA-B*46:01. Described as above. As to conditions: source organism: Escherichia coli O157:H7.
The target of assay [7] is HLA-B*18:01. Described as above. As to conditions: source organism: Escherichia coli O157:H7.
In another assay the target is HLA-B*57:01. The assay is described as above. As to conditions: source organism: Escherichia coli O157:H7.
Another assay deals with HLA-B*48:01. The assay is described as above. As to conditions: source organism: Escherichia coli O157:H7.
Assay [8] addresses HLA-A*68:02. Described as above. As to conditions: source organism: Escherichia coli O157:H7.
The next assay has as its target HLA-B*15:17. The assay is described as above. As to conditions: source organism: Escherichia coli O157:H7.
The target in assay [9] is HLA-B*46:01. As to the kind of experiment: IEDB peptide-MHC binding, purified MHC/competitive/fluorescence; filed as Kd, often an IC50 or EC50 that approximates it; ≥ and ≤ were set here for values at or beyond the usual limits of such assays. As to conditions: source organism: Vibrio cholerae O395.
The target in assay [10] is HLA-B*18:01. Described as above. As to conditions: source organism: Vibrio cholerae O395.
The target of the next assay is HLA-B*39:01. The description is as above. As to conditions: source organism: Vibrio cholerae O395.
Assay [11] concerns the target HLA-A*26:01. The description is as above. As to conditions: source organism: Vibrio cholerae O395.
The target in the next assay is HLA-A*02:16. The description is as above. As to conditions: source organism: Vibrio cholerae O395.
In assay [12] the target is HLA-A*68:02. The assay is described as above. As to conditions: source organism: Vibrio cholerae O395.
The target of the next assay is HLA-A*29:02. The description is as above. As to conditions: source organism: Vibrio cholerae O395.
In a further assay the target is HLA-B*44:02. As to the kind of experiment: IEDB peptide-MHC binding, purified MHC/direct/fluorescence; filed as Kd, often an IC50 or EC50 that approximates it; ≥ and ≤ were set here for values at or beyond the usual limits of such assays. As to conditions: source organism: Rickettsia prowazekii.
Where [13] appears, read: source organism: Human immunodeficiency virus 1.
Where [14] appears, read: source organism: Pasteurella multocida.
Where [15] appears, read: source organism: Escherichia coli O157:H7.
[16] abbreviates: source organism: Vibrio cholerae O395.
Setting [17] is: source organism: Yersinia pestis Nepal516.
[18] abbreviates: source organism: Rickettsia prowazekii.

The term Kd denotes the constant that tells how readily two partners part at equilibrium. Low readings indicate tighter binding, high ones weaker binding. For NLGQHIYET, the Kd with HLA-A*02:01 [1] (setting [13]) is 9 µM; with HLA-A*02:03 (setting [13]), 0.116 µM; in the assay with HLA-A*02:06 (setting [13]), 0.11 µM; with HLA-A*02:12 (setting [13]) it was 0.323 µM; with HLA-A*02:11 (setting [13]), 0.0335 µM; with HLA-A*02:19 (setting [13]), 0.146 µM. In the assay with HLA-A*69:01 [2] (setting [13]), this sequence yielded a Kd of at least 20 µM.
As to NNKSRLVAF, the Kd with HLA-A*02:01 [3] (setting [14]) is at least 20 µM; in the assay with HLA-A*31:01 (setting [14]), at least 20 µM; with HLA-A*01:01 (setting [14]) it was at least 20 µM; with HLA-B*08:01 (setting [14]) it was 0.161 µM; in the assay with HLA-A*26:01 [4] (setting [14]), at least 20 µM; with HLA-B*15:01 (setting [14]), at least 20 µM. In addition, the Kd in the assay with HLA-A*11:01 (setting [14]) was at least 20 µM; in the assay with HLA-A*03:01 (setting [14]), at least 20 µM; with HLA-A*24:03 (setting [14]), at least 20 µM; with HLA-B*58:01 (setting [14]) it was at least 20 µM; with HLA-A*69:01 [5] (setting [14]) it was at least 20 µM; with HLA-A*30:01 (setting [14]) it was 15.7 µM. Besides, the Kd with HLA-B*27:05 (setting [14]) and in the assay with HLA-B*40:01 (setting [14]) was at least 20 µM throughout.
As for RGRGVAIHR, the equilibrium dissociation constant (Kd) in the assay with HLA-A*02:06 (source organism: Shigella dysenteriae 1012) was 0.569 µM; with HLA-B*07:02 (setting [15]), at least 20 µM; with HLA-A*02:01 [3] (setting [15]) it was at least 20 µM; with HLA-B*46:01 [6], at least 20 µM; in the assay with HLA-A*31:01 (setting [15]), 0.0066 µM; in the assay with HLA-B*18:01 [7], at least 20 µM. For the same sequence, the Kd in the assay with HLA-A*01:01 (setting [15]) is at least 20 µM; in the assay with HLA-B*15:01 (setting [15]), at least 20 µM; in the assay with HLA-A*11:01 (setting [15]), at least 20 µM; in the assay with HLA-B*57:01 it was at least 20 µM; in the assay with HLA-B*48:01, at least 20 µM; in the assay with HLA-A*03:01 (setting [15]) it was 0.487 µM. In addition, the Kd in the assay with HLA-B*58:01 (setting [15]), in the assay with HLA-A*68:02 [8], with HLA-B*15:17, with HLA-B*27:05 (setting [15]) and with HLA-B*40:01 (setting [15]) was at least 20 µM throughout.
With RVHFHRFMY, the Kd in the assay with HLA-A*02:01 [1] (setting [16]), with HLA-B*46:01 [9], with HLA-B*18:01 [10], with HLA-A*02:03 (setting [16]), in the assay with HLA-B*39:01 and with HLA-A*26:01 [11] was at least 20 µM each time. Moreover, the Kd with HLA-A*02:12 (setting [16]), with HLA-A*02:11 (setting [16]), with HLA-A*02:16, with HLA-A*02:19 (setting [16]), with HLA-A*69:01 [2] (setting [16]) and with HLA-A*68:02 [12] was at least 20 µM each time. In the assay with HLA-A*29:02, this sequence returned a Kd of 0.0042 µM.
As to SLTPSPLDL, the figures for the Kd with HLA-A*02:01 [1] (setting [17]) and with HLA-A*02:06 (setting [17]) were 0.21 µM and 1.39 µM, respectively.
Regarding VVNYDNSTK, the Kd in the assay with HLA-B*07:02 (setting [18]) was at least 20 µM; with HLA-A*02:01 [3] (setting [18]), at least 20 µM; with HLA-A*31:01 (setting [18]), 5.51 µM; in the assay with HLA-A*01:01 (setting [18]), at least 20 µM; with HLA-B*08:01 (setting [18]) it was at least 20 µM; in the assay with HLA-A*26:01 [4] (setting [18]) it was at least 20 µM. The Kd with HLA-B*15:01 (setting [18]) is at least 20 µM; with HLA-A*11:01 (setting [18]), 0.0451 µM; in the assay with HLA-B*44:02 it was at least 20 µM; in the assay with HLA-A*03:01 (setting [18]), 0.445 µM; in the assay with HLA-A*24:03 (setting [18]) it was at least 20 µM; in the assay with HLA-B*58:01 (setting [18]) it was at least 20 µM. Further, the dissociation constant Kd is at least 20 µM with HLA-A*69:01 [5] (setting [18]), 1.74 µM with HLA-A*30:01 (setting [18]), at least 20 µM with HLA-B*27:05 (setting [18]) and at least 20 µM with HLA-B*40:01 (setting [18]).
